Values quoted from earlier work as cited in publication PMC11313252.

Molecular target: EGFR (Homo sapiens) (UniProt P00533)

Kd: 2 nM
Substance: EGF (from UniProt P01133)
